Data taken from patent publication US20080207488A1, “Method for Detecting Peptides Comprising a Cross-B Structure” (priority 2005, published 2008).
Values belong to the molecule of their own block, whether it stands above or below them. Peptide text beside a SMILES is read from it.

Assays:
[1] = molecular target: T1, LRP cl-IV binding to BSA-AGE (Bos taurus, UniProt P02769); test: ELISA, interference with LRP cl-IV binding to BSA-AGE; design: species or system human; details: concentration series, 50 times diluted LRP cl-IV medium
T1 construct: made in house; host or cells: LRP cl-IV: HEK293E/S culture supernatant, 50 times diluted; BSA-AGE: glycated in house and coated
T1 sequence (P02769 25-607): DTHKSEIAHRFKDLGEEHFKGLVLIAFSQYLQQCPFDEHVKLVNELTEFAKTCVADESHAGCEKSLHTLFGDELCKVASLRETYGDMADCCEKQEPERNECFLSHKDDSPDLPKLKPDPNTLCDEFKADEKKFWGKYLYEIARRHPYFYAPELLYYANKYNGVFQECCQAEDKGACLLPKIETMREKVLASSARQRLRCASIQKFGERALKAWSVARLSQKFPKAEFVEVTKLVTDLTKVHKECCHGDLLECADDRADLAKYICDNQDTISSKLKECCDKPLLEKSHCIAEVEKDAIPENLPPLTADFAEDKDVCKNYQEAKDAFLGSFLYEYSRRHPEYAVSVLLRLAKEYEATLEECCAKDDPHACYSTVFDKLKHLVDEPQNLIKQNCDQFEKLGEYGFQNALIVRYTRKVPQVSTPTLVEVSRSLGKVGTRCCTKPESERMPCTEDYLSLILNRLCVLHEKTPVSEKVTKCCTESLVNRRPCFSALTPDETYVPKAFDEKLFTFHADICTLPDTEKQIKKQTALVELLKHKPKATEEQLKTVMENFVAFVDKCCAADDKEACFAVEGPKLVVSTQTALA
Method: To test whether amyloid-like crossbeta structure binding compounds tPA, Congo red, Thioflavin T and Thioflavin S interfere with LRP cl-IV binding to BSA-AGE, concentration series of the potential inhibitory amyloid binding moieties were tested in the presence of 50 times diluted medium containing LRP cl-IV. The following inhibitors were used: tPA, Congo red, Thioflavin T (ThT) and Thioflavin S (ThS). As a control to tPA, K2P tPA, which lacks the amyloid-like misfolded protein binding finger domain, was included in the analyses. The influence of tPA and K2P tPA was tested in the presence of 10 mM ε-amino caproic acid to avoid binding of the kringle2 domain of tPA and K2P tPA to lysine- and arginine residues. Binding buffer and K2P tPA served as negative controls in these inhibition studies. The concentration series was measured in triplicate, the values averaged and standard deviations calculated. Background signals obtained with buffer-coated wells were subtracted. Signals obtained with binding of LRP cluster IV to BSA-AGE was set arbitrarily to a reference binding of 100% and signals obtained with the concentration series of misfolded protein binding moieties and K2P tPA were calculated based on this set reference.

[2] = molecular target: T2, factor XII (Homo sapiens, UniProt P00748); test: Chromogenic factor XII/prekallikrein activation assay (Chromozym-PK); format: biochemical; details: peptide aggregates and surfaces
T2 construct: purchased Calbiochem, EMD Biosciences #233490
T2 sequence (P00748 20-615): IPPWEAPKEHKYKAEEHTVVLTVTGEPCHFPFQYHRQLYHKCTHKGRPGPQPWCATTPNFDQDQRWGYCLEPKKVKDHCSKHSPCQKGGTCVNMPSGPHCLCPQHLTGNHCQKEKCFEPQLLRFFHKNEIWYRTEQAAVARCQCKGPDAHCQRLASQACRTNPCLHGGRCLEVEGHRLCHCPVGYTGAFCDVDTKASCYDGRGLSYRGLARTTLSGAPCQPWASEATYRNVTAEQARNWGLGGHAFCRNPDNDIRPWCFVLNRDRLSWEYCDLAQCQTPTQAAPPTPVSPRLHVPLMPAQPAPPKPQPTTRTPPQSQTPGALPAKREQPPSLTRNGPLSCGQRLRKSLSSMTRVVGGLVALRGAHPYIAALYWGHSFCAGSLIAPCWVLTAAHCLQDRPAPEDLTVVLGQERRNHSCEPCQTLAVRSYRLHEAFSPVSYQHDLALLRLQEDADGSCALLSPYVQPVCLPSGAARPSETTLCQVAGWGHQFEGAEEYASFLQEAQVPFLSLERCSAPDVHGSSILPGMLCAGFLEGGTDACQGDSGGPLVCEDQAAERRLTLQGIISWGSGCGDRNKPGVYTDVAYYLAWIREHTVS
Method: (§1) Plasmin (Pls) activity was assayed as described^7. Peptides and proteins that were tested for their stimulatory ability were regularly used at 100 μg ml^−1. […] Chromogenic substrate S-2251 (Chromogenix, Instrumentation Laboratory SpA, Milano, Italy) was used to measure Pls activity. Conversion of zymogen factor XII (#233490, Calbiochem, EMD Biosciences, Inc., San Diego, Calif.) to proteolytically active factor XII (factor XIIa) was assayed by measurement of the conversion of chromogenic substrate Chromozym-PK (Roche Diagnostics, Almere, The Netherlands) by kallikrein. Chromozym-PK was used at a concentration of 0.3 mM. Factor XII, human plasma prekallikrein (#529583, Calbiochem) and human plasma cofactor high-molecular weight kininogen (#422686, Calbiochem) were used at concentrations of 1 μg ml^−1. […] Assays were performed using microtiter plates (Costar, Cambridge, Mass., USA). Peptides and proteins were tested for their ability to activate factor XII. 150 μg ml^−1 kaolin, an established activator of factor XII was used as positive control and solvent (H2O) as negative control. The conversion of Chromozym-PK was recorded kinetically at 37° C. for at least 60 minutes. Assays were done in duplicate. […] Alternatively, chromogenic substrate S-2222 (Chromogenix) was used to follow the activity of factor XII itself. With S-2222, activation of factor XII in plasma was measured, using 60% v/v plasma, diluted with substrate and H2O with or without potential cofactor. Furthermore, auto-activation of factor XII was measured by incubating 53 μg ml^−1 purified factor XII in 50 mM Tris-HCl buffer pH 7.5 with 1 mM EDTA and 0.001% v/v Triton-X100, with S-2222 and H2O with or without potential cofactor.
(§2) Formulated protein therapeutics were obtained from the local hospital pharmacy and were used as supplied by the manufacturers. […] Lyophilized therapeutics were dissolved according to the manufacturers recommendations. […] Other protein therapeutics were only kept at 4° C., and assayed for the presence of cross-β structure conformation at shown time points. Enhancement in fluorescence of ThT and Congo red was measured with all formulated protein therapeutics. For this purpose, proteins were diluted to the indicated concentrations. […] Zinc-insulin was diluted tenfold in the activation assay, GH was diluted to a final concentration of 500 μg ml^−1. Activation of factor XII and prekallikrein by the therapeutics was tested in the chromogenic factor XII assay (see above). […] After coating, plates were blocked with Blocking Reagent (Roche Diagnostics, Almere, The Netherlands).

[3] = molecular target: T3, tPA (Homo sapiens, UniProt P00750); test: Plasminogen-activation assay (tPA-mediated Plg to Pls, S-2251); format: biochemical; details: FIG. 6E, G
T3 construct: purchased Boehringer-Ingelheim (Actilyse, Alteplase)
T3 sequence (P00750 36-562): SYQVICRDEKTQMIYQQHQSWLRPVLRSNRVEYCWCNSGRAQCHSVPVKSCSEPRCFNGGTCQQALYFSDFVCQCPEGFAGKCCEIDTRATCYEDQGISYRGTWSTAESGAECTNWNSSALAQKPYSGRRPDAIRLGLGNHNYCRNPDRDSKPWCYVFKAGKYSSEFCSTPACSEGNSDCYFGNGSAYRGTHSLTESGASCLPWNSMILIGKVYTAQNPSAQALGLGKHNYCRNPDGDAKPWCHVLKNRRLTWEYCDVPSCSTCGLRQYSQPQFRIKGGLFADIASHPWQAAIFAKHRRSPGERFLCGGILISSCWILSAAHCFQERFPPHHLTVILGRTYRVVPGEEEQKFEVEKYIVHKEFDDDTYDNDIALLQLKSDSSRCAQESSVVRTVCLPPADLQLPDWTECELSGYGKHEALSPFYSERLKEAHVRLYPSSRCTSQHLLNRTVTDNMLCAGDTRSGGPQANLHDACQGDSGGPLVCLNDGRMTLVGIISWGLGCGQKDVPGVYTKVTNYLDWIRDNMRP
Method: as §1, §2
Purification of β2-glycoprotein I (β2GPI) was performed according to established methods^11,12. Recombinant human β2GPI was made using insect cells and purified as described^11. Plasma derived β2GPI as used in a factor XII ELISA, the chromogenic Plg-activation assay and in the anti-phospholipid syndrome antibody ELISA (see below), was purified from fresh human plasma as described^12.
(§3) To prepare structurally altered ovalbumin (OVA) with amyloid cross-β structure conformation, purified OVA (Sigma, A-7641, lot 071k7094) was heated to 85° C. One mg ml^−1 OVA in 67 mM NaPi buffer pH 7.0, 100 mM NaCl, was heated for two cycles in PCR cups in a PTC-200 thermal cycler (MJ Research, Inc., Waltham, Mass., USA). In each cycle, OVA was heated from 30 to 85° C. at a rate of 5° C./min. Native OVA (nOVA) and heat-denatured OVA (dOVA) were tested in the ThT fluorescence assay and in the Plg-activation assay. In the fluorescence assay and in the Plg-activation assay, 25 and 100 μg ml^−1 nOVA and dOVA were tested, respectively. TEM images of nOVA and dOVA were taken to check for the presence of large aggregates. […] MSA (#126674, Calbiochem) was dissolved in 8 M urea, 100 mM Tris-HCl pH 8.2, at 10 mg ml^−1 final concentration.

[4] = Thioflavin T fluorescence; format: physicochemical; details: 25 μg ml^−1
Method: Fluorescence of ThT-protein/peptide adducts was measured as follows. […] Fluorescence was measured at 485 nm upon excitation at 435 nm. Background signals from buffer, buffer with ThT and protein/peptide solution without ThT were subtracted from corresponding measurements with protein solution incubated with ThT. […] Fluorescence was measured in triplicate on a Hitachi F-4500 fluorescence spectrophotometer (Ltd., Tokyo, Japan).
as §2
as §3, with “concentration. Dithiothreitol (DTT) was added to a final concentration of 10 mM. Air was replaced by N2 and the solution was incubated for 2 h at room temperature. Then, the solution was transferred to ice and iodoacetamide was added from a 1 M stock to a final concentration of 20 mM. […] Alkyl-MSA was dialyzed against H2O before use. […] In the ThT-fluorescence assay 25 μg ml^−1 nMSA and alkyl-MSA were tested, and in the Plg-activation assay 100 μg ml^−1 was tested. The presence of aggregates or fibrils was analyzed using TEM. […]” for “concentration.”
Protein therapeutics were obtained from the local hospital pharmacy and analyzed within the expiry limits as stated by the manufacturers.

[5] = molecular target: T4, human BiP (Homo sapiens, UniProt P11021); test: ELISA, binding of BiP to coated (mis)folded proteins; details: coated protein
T4 construct: made in house; host or cells: HEK293E cells, transient transfection, protein purified from the medium
T4 sequence (P11021 19-654): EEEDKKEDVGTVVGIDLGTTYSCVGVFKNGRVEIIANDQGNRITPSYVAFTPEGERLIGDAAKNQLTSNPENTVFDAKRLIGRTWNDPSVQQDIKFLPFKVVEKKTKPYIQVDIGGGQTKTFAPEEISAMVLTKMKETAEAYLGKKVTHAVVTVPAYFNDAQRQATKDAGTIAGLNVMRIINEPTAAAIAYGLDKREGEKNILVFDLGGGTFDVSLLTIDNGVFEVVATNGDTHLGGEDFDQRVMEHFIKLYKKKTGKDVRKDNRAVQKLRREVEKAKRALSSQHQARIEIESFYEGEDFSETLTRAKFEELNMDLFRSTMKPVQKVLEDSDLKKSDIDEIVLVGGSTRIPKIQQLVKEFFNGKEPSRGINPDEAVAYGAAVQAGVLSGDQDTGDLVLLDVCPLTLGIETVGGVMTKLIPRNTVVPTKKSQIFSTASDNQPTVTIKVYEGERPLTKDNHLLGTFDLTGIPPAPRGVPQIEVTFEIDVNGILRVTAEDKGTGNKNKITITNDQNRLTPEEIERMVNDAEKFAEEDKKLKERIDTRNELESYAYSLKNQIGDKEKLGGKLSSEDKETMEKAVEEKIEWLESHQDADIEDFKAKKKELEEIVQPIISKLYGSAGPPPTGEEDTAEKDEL
Method: (§4) The plates were blocked using Blocking reagent (Roche 1112589). A dilution series of the protein of interest was applied to the coated proteins and wells were subsequently washed using TBS-T (50 mM Tris pH 7.3, 150 mM NaCl and 0.1% Tween20). Bound protein is detected by the FLAG-tag using 1:3000 anti-FLAG-HRP (Sigma A-8592) in PBS-T, or by 1:1000 Ni-NTA-HRP (Qiagen 34530) in PBS-T. The HRP reaction Is performed using the TMB substrate (Biosource 4501103 or Tebu Bio 101TMB100-500), stopped using 10% H2SO4 and absorbance was measured at 450 nm.

[6] = molecular target: T5, human fibronectin finger 4,5 (Fn F4,5) fragment (Homo sapiens, UniProt P02751); test: ELISA, binding of fibronectin F4,5 to coated (mis)folded proteins; details: coated protein, FIG. 7D-H
T5 construct: human fibronectin finger 4,5 (Fn F4,5) fragment; made in house; host or cells: HEK293E cells, transient transfection, protein purified from the medium
T5 sequence (P02751 182-276 limits assumed): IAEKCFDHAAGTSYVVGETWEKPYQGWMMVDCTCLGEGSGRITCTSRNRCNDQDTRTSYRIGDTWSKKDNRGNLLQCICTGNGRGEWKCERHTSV
Method: as §4

Molecule: Nc1c(/N=N/c2ccc(-c3ccc(/N=N/c4cc(S(=O)(=O)O)c5ccccc5c4N)cc3)cc2)cc(S(=O)(=O)O)c2ccccc12 [Congo red]
influence on binding of LRP cl-IV to BSA-AGE [1]: inhibit binding of LRP cl-IV to BSA-AGE to a large extent

Molecule: Cc1ccc2c(c1)sc(-c1ccc(N(C)C)cc1)[n+]2C [ThT, Thioflavin T]
influence on binding of LRP cl-IV to BSA-AGE [1]: do not interfere

Molecule: heat-denatured glucagon: glucagon kept at 37° C. at low pH in HCl
tPA activating potential of native and denatured glucagon and Etanercept [3]: potent activator of tPA
ThT fluorescence enhancement of native and denatured proteins [4]: enhanced ThT fluorescence to a large extent

Molecule: Thioflavin S [ThS]
influence on binding of LRP cl-IV to BSA-AGE [1]: inhibit binding of LRP cl-IV to BSA-AGE to a large extent

The next lines start with the values.

factor XII activation (kallikrein, Chromozym-PK conversion) [2]: stimulate the activation of factor XII
Molecule: CC[C@H](C)[C@H](NC(=O)CNC(=O)[C@@H](NC(=O)[C@H](CC(=O)O)NC(=O)[C@@H](NC(=O)[C@H](CC(=O)O)NC(=O)[C@@H](NC(=O)[C@H](CCC(=O)O)NC(=O)[C@H](CC(C)C)NC(=O)[C@H](CCCNC(=N)N)NC(=O)[C@@H](N)CCCCN)C(C)C)[C@@H](C)CC)[C@@H](C)CC)C(=O)N[C@@H](CCCNC(=N)N)C(=O)N[C@@H](CO)C(=O)O [FP13 K157G] (H-KRLEVDIDIGIRS-OH)

factor XII activation (kallikrein, Chromozym-PK conversion) [2]: do not activate factor XII
Molecule: mIAPP: non-amyloid control peptide

binding of BiP (detection anti-FLAG-HRP) [5]: not
Molecule: heat-denatured BSA: heat-denatured bovine serum albumin

affinity of fibronectin F4,5 (detection anti-FLAG HRP) [6]: high affinity
Molecule: reduced and alkylated lysozyme: reduced and alkylated lysozyme
